Laboratory results: PMC9426602, “The Native Orthobunyavirus Ribonucleoprotein Possesses a Helical Architecture” (mBio, 2022)

Target: the molecule itself
Test: negative staining EM; purified native RNPs, untreated, in reduced-salt TNE (25 mM NaCl), 1% uranyl acetate

B1: Bunyamwera virus (BUNV) nucleocapsid protein (NP), as it stands in native ribonucleoproteins (RNPs) purified from virions (natural protein)
chain: MIELEFHDVAANTSSTFDPEVAYANFKRVHTTGLSYDHIRIFYIKGREIKTSLAKRSEWEVTLNLGGWKITVYNTNFPGNRNNPVPDDGLTLHRLSGFLARYLLEKMLKVSEPEKLIIKSKIINPLAEKNGITWNDGEEVYLSFFPGSEMFLGTFRFYPLAIGIYKVQRKEMEPKYLEKTMRQRYMGLEAATWTVSKLTEVQSALTVVSSLGWKKTNVSAAARDFLAKFGINM
notes: the atomic model started from the BUNV NP crystal structure PDB 3ZLA; Many copies of NP form a helical filament around each RNA segment (about 3.4 NPs per turn); the number of copies depends on the segment; The viral RNA is part of the assembly; also called BUNV NP; source: native RNPs from BUNV virions grown in BHK-21 cells; virions disrupted by freeze/thaw, RNPs purified on a 10 to 25% OptiPrep …
binding result: binds
